First the molecules themselves.
B1: TPR t1 (parent)
chain: GACCAAUCUGCCCUCAGAGCUCGAGAACAUCUUCGGAUGCAGAGGAGGCAGGCUUCGGUGGCGCGAUAGCGCCAACGUCCUCAACCUCCAAUGCAUCCCACCACAUGAUGAUGCCUGAAGAGCCUUGGUUUUUUG

This data set covers variants of B1. The experiment in a line: polymerase ribozyme fitness, log enrichment relative to wild type (log ratio); higher = more active; in vitro selection for triplet polymerase activity. The method, boiled down:
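Mutant libraries of each subunit of a heterodimeric triplet polymerase ribozyme were built by PCR and transcribed. Each library went through one round of in vitro selection in triplicate: annealing with biotinylated primer, partner subunit and triplets, frozen incubation at −7 °C, gel excision of extended constructs, streptavidin-bead capture and RT-PCR. Input and output libraries were Illumina-sequenced; only genotypes with ≥10 input reads and ≥1 read per output were kept. Fitness is log2(genotype enrichment/wild-type enrichment), using inverse-variance-weighted replicate averages.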
Regarding A105C G110A C115U A119G, the “polymerase ribozyme fitness (log ratio)” value is -6.05. As for C28U A37U G44U A90C, the “polymerase ribozyme fitness (log ratio)” value is -3.61. In the case of C13A C72A it was -2.25; in that of G71C C123G, 0.627; in that of A16U G36A G44U A83C, -5.08. For A5C A50C A74U U96G, the “polymerase ribozyme fitness (log ratio)” value is -3.17. In the case of U30A A118U, the “polymerase ribozyme fitness (log ratio)” value was -5.54.

As to A50U A83C C89G, the “polymerase ribozyme fitness (log ratio)” value was -5.74. In the case of C12U C98A it was -4.29.

For the variant G45U G61C A66U, the “polymerase ribozyme fitness (log ratio)” value was -3.49. The same measure for C34A G47U G61A C86U: -4.04; for A18C C101A C123U G127A: -4.43. In the case of U9A G44C U55C U109G it was -4.29; in that of G52C U54G C82G, -1.46; in that of G110A C114G, -6.64. G36A U59G G69A C94U G113A: the “polymerase ribozyme fitness (log ratio)” value was -4.53. With C8A G52U C89U, the “polymerase ribozyme fitness (log ratio)” value was -0.556. Turning to G19A A26G U112C A118U, the “polymerase ribozyme fitness (log ratio)” value was -3.63. The same measure for G45C U112C: 1.16. Consider C124U U129A, for which the “polymerase ribozyme fitness (log ratio)” value was -0.35. As to C64U C115U U130A, the “polymerase ribozyme fitness (log ratio)” value is -1.66. Consider G45A G71U A84G, for which the “polymerase ribozyme fitness (log ratio)” value was -2.48.

Turning to C12A C31U, the “polymerase ribozyme fitness (log ratio)” value was -4.6. In the case of G113A U132C it was -1.76; in that of C85A U106A U125A, -3.11; in that of G39U A119G, 0.375. The same measure for C12U U30C G61U: -3.15; for C64U A84U: -0.154; for A100U U130A: -0.606.

As for G52A C70A U92A G93C A105U U112A C115A U130C, the “polymerase ribozyme fitness (log ratio)” value is -6.48. The same measure for G36U U38A G48U G61U G63A C97U C115U: -5.64.

As to U7G G42C G71A C89G, the “polymerase ribozyme fitness (log ratio)” value was -2.37.

With U9G G63U C64A C88A A119G, the “polymerase ribozyme fitness (log ratio)” value was -6.72. In the case of A2U U129A it was 0.107; in that of C11U C104U, -1.3. In the case of C11U A27G C86U C115U it was -7.32; in that of C76U G107C A121G U126A, -4.6.

Take A46C C79A: the “polymerase ribozyme fitness (log ratio)” value was -2.25. The same measure for C70G G120A: -1.34; for C101U G120U: -1.36; for C12G C56U A74G G77C: -1.66.

Take G44U G63C: the “polymerase ribozyme fitness (log ratio)” value is -1.66. In the case of A43C G48C C123A, the “polymerase ribozyme fitness (log ratio)” value is -1.93.

A18G G44U C86A C104U G120C: the “polymerase ribozyme fitness (log ratio)” value was -3.98.

Turning to G60A C76G, the “polymerase ribozyme fitness (log ratio)” value is -2.57. Regarding A50G C62A U67A A84G C97U G110C A118G, the “polymerase ribozyme fitness (log ratio)” value is -8.94.

Take G10A A41C G61U U92A U133C: the “polymerase ribozyme fitness (log ratio)” value is -0.847.

For the variant G77A C80A G120U, the “polymerase ribozyme fitness (log ratio)” value was -2.54.

For G71U A74U C104A G117A C124U, the “polymerase ribozyme fitness (log ratio)” value is -5.66.

As to C56U U59A, the “polymerase ribozyme fitness (log ratio)” value is -0.76.

C11G A50G C62U G110C: the “polymerase ribozyme fitness (log ratio)” value is -4.81. The same measure for G48C G60C: -1.63; for A2U G127C: -2.05; for C97U C123A: 0.00246. A26U C64A C115U: the “polymerase ribozyme fitness (log ratio)” value is -6.23. The same measure for C49A U54A C73U U112C: 1.26. In the case of G60C A95G G120A U130C, the “polymerase ribozyme fitness (log ratio)” value was determined as 0.59. For the variant C8A C94A, the “polymerase ribozyme fitness (log ratio)” value was -0.131. The same measure for U9C G47C G71U U132C: -2.26; for C73U U96A U116G U130A: -3. The same measure for G52C U55G A83C C115U A118G: -2.39; for C64U U78C A83C A100C C101G U129G: -3.92. On to A50U G60A C70U G93A, for which the “polymerase ribozyme fitness (log ratio)” value is -3.24. The same measure for G39U C79U C89A A111U: -5.59.

Turning to A5G G71U A111C G127A, the “polymerase ribozyme fitness (log ratio)” value was -1.59. In the case of C40U C76U it was -0.869. The same measure for A18C C72G U78C C104A C114G: -3.63.

On to U59A C104A, for which the “polymerase ribozyme fitness (log ratio)” value is -1.75. In the case of A6U C62U it was 0.19; in that of A6C U109C G110U C114U, -6.23. G71U G117U: the “polymerase ribozyme fitness (log ratio)” value is -1.78. For the variant C15U A37U U55G C56U, the “polymerase ribozyme fitness (log ratio)” value was -3.11.

On to C15U C73U C85G, for which the “polymerase ribozyme fitness (log ratio)” value was -1.89. In the case of A6C G48C, the “polymerase ribozyme fitness (log ratio)” value is -1.5. The same measure for G127U U129A U130C: -1.27; for G52A G77U G93A G122U: -2.45. The same measure for A29U G36U U112C: -1.39; for C4G G47A: -2.34.

Consider C13A C15G U106A, for which the “polymerase ribozyme fitness (log ratio)” value was -3.48. Take G47A C82G: the “polymerase ribozyme fitness (log ratio)” value was -1.3. The same measure for C56G A90G G127C: -2.21; for C13A G63U C70U: -0.406.

With U9G U32C U59A U131A, the “polymerase ribozyme fitness (log ratio)” value is -0.0228. On to C13U C20U A74U U92A, for which the “polymerase ribozyme fitness (log ratio)” value was -3.91.

The values are drawn from the RNAGym collection of RNA variant scans (doi:10.1073/pnas.2313332121).
